What was measured:
[1] = target: human PAI-1, active, wild-type, non-glycosylated (E. coli-derived) (human, UniProt P05121 24-402); assay: cell-based or functional assay
cynomolgus PAI-1 = cynomolgus PAI-1 (cynomolgus, UniProt P05121 24-402 (human entry), limits assumed); assay: cell-based or functional assay
rat PAI-1 [2] = target: T1, rat PAI-1 (rat, UniProt P20961 24-402); assay: cell-based or functional assay
T1 sequence: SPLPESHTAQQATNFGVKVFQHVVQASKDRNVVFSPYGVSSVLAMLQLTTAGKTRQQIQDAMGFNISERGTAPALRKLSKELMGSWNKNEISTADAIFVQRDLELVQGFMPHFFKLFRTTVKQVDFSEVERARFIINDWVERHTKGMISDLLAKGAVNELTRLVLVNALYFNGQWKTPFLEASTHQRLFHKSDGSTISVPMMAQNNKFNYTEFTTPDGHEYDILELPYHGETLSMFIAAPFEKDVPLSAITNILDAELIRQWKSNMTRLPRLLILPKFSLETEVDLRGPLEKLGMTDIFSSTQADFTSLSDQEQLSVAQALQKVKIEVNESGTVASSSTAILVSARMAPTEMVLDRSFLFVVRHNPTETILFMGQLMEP

latent human PAI-1 = target: T2, latent human PAI-1 (human, UniProt P05121 24-402); assay: IgG competition ELISA (DELFIA), one-site binding analysis
T2 construct: also called latent PAI-1

[3] = target: T3, dog PAI-1 (bacterially-derived active dog PAI-1) (dog); assay: IgG competition ELISA (DELFIA) against biotinylated human PAI-1, one-site binding analysis; column Dog
T3 construct: also called canine PAI-1

rat PAI-1 [4] = target: T1, rat PAI-1; assay: IgG competition ELISA (DELFIA) against biotinylated human PAI-1, one-site binding analysis; column Rat
[5] = target: T4, glycosylated active human PAI-1 produced by CHO cells (human, UniProt P05121 24-402, N-glycosylated (CHO-produced)); assay: IgG competition ELISA (DELFIA) against biotinylated human PAI-1, one-site binding analysis; column Human glycosylated
T4 construct: also called hu glyco; human glycosylated PAI-1

PAI-2 = PAI-2 (UniProt P05120 1-415, limits assumed); assay: competition ELISA (DELFIA): PICK167_A01 IgG1 coated on the plate, biotinylated human PAI-1, titration of the unlabelled test antigen
PAI-3 = target: T5, PAI-3 (UniProt P05154 26-406, limits assumed); assay: as above
T5 sequence (looked up): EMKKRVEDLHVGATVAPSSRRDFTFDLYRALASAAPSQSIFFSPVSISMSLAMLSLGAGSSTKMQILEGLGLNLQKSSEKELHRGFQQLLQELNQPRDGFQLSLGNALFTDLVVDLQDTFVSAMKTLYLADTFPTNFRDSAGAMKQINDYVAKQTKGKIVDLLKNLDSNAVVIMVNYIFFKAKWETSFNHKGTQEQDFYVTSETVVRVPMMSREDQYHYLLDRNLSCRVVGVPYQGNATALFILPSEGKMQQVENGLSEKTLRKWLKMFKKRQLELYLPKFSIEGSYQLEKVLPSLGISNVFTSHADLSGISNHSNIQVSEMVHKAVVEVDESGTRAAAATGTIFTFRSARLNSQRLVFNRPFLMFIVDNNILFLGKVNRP

antithrombin III = antithrombin III (UniProt P01008 33-464); assay: as above
α1-antitrypsin = target: T6, α1-antitrypsin (UniProt P01009 25-418); assay: as above
T6 construct: also called alpha-1-antitrypsin

α1-antichymotrypsin = target: T7, α1-antichymotrypsin (UniProt P01011 24-423); assay: as above
T7 sequence (looked up): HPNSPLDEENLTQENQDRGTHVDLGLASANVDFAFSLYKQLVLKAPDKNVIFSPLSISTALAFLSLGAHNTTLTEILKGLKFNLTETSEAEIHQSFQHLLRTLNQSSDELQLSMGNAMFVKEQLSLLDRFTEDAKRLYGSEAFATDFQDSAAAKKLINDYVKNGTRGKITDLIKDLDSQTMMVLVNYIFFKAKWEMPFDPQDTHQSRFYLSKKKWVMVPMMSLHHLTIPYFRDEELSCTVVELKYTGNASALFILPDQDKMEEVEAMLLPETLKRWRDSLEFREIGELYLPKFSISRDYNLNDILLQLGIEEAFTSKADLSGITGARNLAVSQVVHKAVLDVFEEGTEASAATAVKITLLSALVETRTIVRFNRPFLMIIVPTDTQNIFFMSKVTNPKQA

α2-antiplasmin = target: T8, α2-antiplasmin (UniProt P08697 40-491, limits assumed); assay: as above
T8 sequence (looked up): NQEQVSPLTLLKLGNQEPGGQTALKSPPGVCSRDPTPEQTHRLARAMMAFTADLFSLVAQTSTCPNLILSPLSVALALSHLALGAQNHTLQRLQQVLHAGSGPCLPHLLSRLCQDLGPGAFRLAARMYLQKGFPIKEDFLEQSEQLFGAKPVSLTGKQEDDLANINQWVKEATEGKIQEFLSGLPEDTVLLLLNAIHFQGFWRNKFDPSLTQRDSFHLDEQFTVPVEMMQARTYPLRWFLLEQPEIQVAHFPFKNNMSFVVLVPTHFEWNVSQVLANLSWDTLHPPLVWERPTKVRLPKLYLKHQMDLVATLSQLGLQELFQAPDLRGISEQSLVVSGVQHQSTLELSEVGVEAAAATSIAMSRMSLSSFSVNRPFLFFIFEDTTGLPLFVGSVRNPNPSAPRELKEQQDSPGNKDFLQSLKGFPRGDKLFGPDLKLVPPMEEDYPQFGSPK

B1: PICK167_A01 IgG1 (antibody, V domains shown)
VH: QVQLQQSGAEVKKPGSSVKVSCKASGGTFSSYAISWVRQAPGQRLEWMGGIIPTFGTANYAQKFQGRVTITADESTSTAYMELSGLRSEDTAVYYCARERRQWLEGHFDYWGRGTPVTVSS
VL: DIQMTQSPSFLSASIGDRVTITCRASEGIYHNLAWYQQKPGKAPKLLIYKASSLASGAPSRFSGSRSGTDFTLTISSLQPDDFATYYCQQYSNYPLTFGGGTKLEIKR
With B1 the “IC50, PAI-1:tPA functional assay” value [1] was 1.34 nM, the “IC50, PAI-1:tPA functional assay” value (cynomolgus PAI-1) was 0.8 nM and the “IC50, PAI-1:tPA functional assay” value (rat PAI-1 [2]) was 1.97 nM. For the same binder, the “fold loss of binding affinity against wild-type active PAI-1” value (latent human PAI-1) was 10 fold, the “fold difference in observed binding KD compared to human wild-type active” value (shortened to “fold difference in observed binding KD”) [3] was 2.7 fold and the “fold difference in observed binding KD” value (rat PAI-1 [4]) was 9.7 fold. The “fold difference in observed binding KD” value [5] was 1.2 fold, the binding result (PAI-2) was “no binding (tested: log M about -6.3 (about 5e-7 M))” and the binding result (PAI-3) was “no binding (tested: log M about -6.3 (about 5e-7 M))”. B1: no binding (tested: log M about -6.3 (about 5e-7 M)) (antithrombin III); no binding (tested: log M about -6.3 (about 5e-7 M)) (α1-antitrypsin); no binding (tested: log M about -6.3 (about 5e-7 M)) (α1-antichymotrypsin). B1: no binding (tested: log M about -6.3 (about 5e-7 M)) (α2-antiplasmin).
